Test results as given in patent EP4541444A1.
Positions count from the first letter of the chain named.

Assays:
[1] = target: AAV9 viral particles (adeno-associated virus serotype 9); assay: SPR (Biacore), ligand amine coupled to CM5 chip, AAV9 2E12 vp/ml
[2] = target: epidermal growth factor receptor (Example 4A) (UniProt P00533); assay: SPR (Biacore), fusion on CM5 chip, EGFR 200 nM
[3] = target: EGFR (SinoBiological, 10001-H08H) (UniProt P00533); assay: SPR (Biacore), fusion on CM5 chip, EGFR 200 nM
[4] = target: trastuzumab-GFP; assay: SPR (Biacore), fusion on CM5 chip, 2 µM Fc block, then trastuzumab-eGFP 1 µM
[5] = target: AAV9 viral particles (adeno-associated virus serotype 9); assay: SPR (Biacore), biotinylated ligand on SA chip, AAV9 2E12 vp/ml

B1: 2A-1 (VHH)
VHH: QVQLQQSGGGSVQAGGSLRLSCTISGRTLSDYTMGWFRQRPGKEREFVAAISWSGAYTKYADSVKGRFTISRDNAKNTVYLQMNSLKPEDTAVYYCAAGPTGLLSKKATPADYDYWGQGTQVTVSS
[1]
  AAV9 capacity (2E12 vp/ml): 11300 RU

B2: 4A-5 (VHH)
VHH: QVQLQQSGGGSVQAGGSLRLSCTISGRTFSSYAMGWFRQRPGKEREFVAAINWSSGSTYYADSVKGRFTISRDNAKNTVYLQMNSLKPEDTAVYYCAAGYQINSGNYNFKDYEYDYWGQGTQVTVSS
[2]
  Binding capacity EGFR (200 nM): 2350 RU

B3: 4B-4 (VHH)
VHH: B2 VHH
[3]
  Binding capacity EGFR (200 nM): 1900 RU

B4: 4B-5 (VHH)
VHH: QVQLQESGGGLVQPGGSLRLSCAASGRTSINPYMAWFRQAPGKQREFVAAISSGGVYTYYTDSVKGRFTISRDNAKTTVYLQMNSLKPEDTAVYYCAADFRRGGNWNVDPFRYDYQYWGQGTQVTVSS
[4]
  Binding capacity trastuzumab-eGFP (1 µM): 4300 RU

B5: 4B-6 (VHH)
VHH: B4 VHH with E6Q, L11S, P14A, A23T, A24I, A40R, Q44E, T61A, T77N, Q116D
[4]
  Binding capacity trastuzumab-eGFP (1 µM): 3910 RU

B6: 2B-1 (VHH)
chain: QVQLQQSGGGSVQAGGSLRLSCTISGRTLSDYTMGWFRQRPGKEREFVAAISWSGAYTKYADSVKGRFTISRDNAKNTVYLQMNSLKPEDTAVYYCAAGPTGLLSKKATPADYDYWGQGTQVTVSSQASAEAAAKEAAAKAGQVQLQQSGGGSVQAGGSLRLSCTISGRTLSDYTMGWFRQRPGKEREFVAAISWSGAYTKYADSVKGRFTISRDNAKNTVYLQMNSLKPEDTAVYYCAAGPTGLLSKKATPADYDYWGQGTQVTVSSQASAEAAAKEAAAKAGQVQLQQSGGGSVQAGGSLRLSCTISGRTLSDYTMGWFRQRPGKEREFVAAISWSGAYTKYADSVKGRFTISRDNAKNTVYLQMNSLKPEDTAVYYCAAGPTGLLSKKATPADYDYWGQGTQVTVSSQASHHHHHHC
[5]
  AAV9 capacity (2E12 vp/ml): 13400 RU
